Assay results reported in PMC10229431, “Structures of the sulfite detoxifying F420-dependent enzyme from Methanococcales” (Nature Chemical Biology, 2023).
Like-named read-outs stand apart in the source and are kept apart here.

Columns and labels:
MjFsr = biological target: T1, MjFsr (Methanocaldococcus jannaschii, UniProt Q58280); experiment: X-ray crystal structure, […] Å; format: binding; details: F420H2-oxidase domain
T1 construct: gene fsr; full length, native purification from M. jannaschii grown on sulfite; homotetramer, residues to 620
T1 sequence (Q58280 1-620): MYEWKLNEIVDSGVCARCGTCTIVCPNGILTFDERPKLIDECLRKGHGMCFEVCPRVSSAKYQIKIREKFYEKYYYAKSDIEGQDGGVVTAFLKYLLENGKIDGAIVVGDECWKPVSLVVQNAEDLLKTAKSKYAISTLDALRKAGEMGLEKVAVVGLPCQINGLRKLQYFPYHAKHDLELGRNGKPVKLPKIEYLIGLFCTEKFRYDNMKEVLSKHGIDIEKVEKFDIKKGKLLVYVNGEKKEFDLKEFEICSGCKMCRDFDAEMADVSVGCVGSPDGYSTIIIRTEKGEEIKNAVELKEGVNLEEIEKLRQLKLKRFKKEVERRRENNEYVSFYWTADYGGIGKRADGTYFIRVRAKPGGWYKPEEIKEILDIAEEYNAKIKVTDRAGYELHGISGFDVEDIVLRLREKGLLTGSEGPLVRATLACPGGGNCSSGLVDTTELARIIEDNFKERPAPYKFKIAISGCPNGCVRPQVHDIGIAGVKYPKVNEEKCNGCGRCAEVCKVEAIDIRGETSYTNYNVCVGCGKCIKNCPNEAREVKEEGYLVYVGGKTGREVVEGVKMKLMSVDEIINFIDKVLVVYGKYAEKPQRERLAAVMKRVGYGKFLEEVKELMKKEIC

MtFsr = system: T2, MtFsr; experiment: F420H2 oxidation followed at […] nm; format: biochemical, Methanothermococcus thermolithotrophicus; details: anaerobic, read-out: Apparent Km
T2 construct: gene fsr; full length, native purification from M. thermolithotrophicus grown on sulfite (assays) or sulfate (crystals); FAD, siroheme, six [4Fe-4S] clusters per subunit

[1] = biological target: coenzyme F420-dependent sulfite reductase (Group I Fsr) from Methanothermococcus thermolithotrophicus (Methanothermococcus thermolithotrophicus (endogenous in strain DSM 2095)); experiment: native gel or EMSA; anaerobic high-resolution clear-native PAGE (8-15% gradient) of cell extracts of cultures grown on 2 mM Na2S or 2 mM Na2SO3
[2] = biological target: coenzyme F420-dependent sulfite reductase (Group I Fsr) from Methanothermococcus thermolithotrophicus (Methanothermococcus thermolithotrophicus (endogenous in strain DSM 2095)); experiment: SEC; purified MtFsr on Superdex 200 Increase 10/300 GL, 0.4 ml/min, 25 mM Tris-HCl pH 7.6, 10% v/v glycerol, 2 mM DTT, anaerobic; standards conalbumin, aldolase, ferritin; apparent molecular weight
[3] = biological target: coenzyme F420-dependent sulfite reductase (Group I Fsr) from Methanothermococcus thermolithotrophicus (Methanothermococcus thermolithotrophicus (endogenous in strain DSM 2095)); experiment: crystal structure; MtFsr at 11 mg/ml cocrystallized with FAD and F420H2; 200 mM lithium sulfate, 100 mM Bis-Tris pH 5.5, 25% w/v PEG 3350; anaerobic, 20 °C; four homotetramers in the asymmetric unit
[4] = biological target: the molecule itself; experiment: crystal structure; MjFsr at 6.1 mg/ml; 45% v/v 2-methyl-2,4-pentanediol, 100 mM Bis-Tris pH 5.5, 200 mM calcium chloride; anaerobic, 20 °C; two half homotetramers in the asymmetric unit

In the case of `Cc1cc2nc3c(=O)[nH]c(=O)nc-3n(C[C@H](O)[C@H](O)[C@H](O)COP(=O)(O)OP(=O)(O)OC[C@H]3O[C@@H](n4cnc5c(N)ncnc54)[C@H](O)[C@@H]3O)c2cc1C` [FAD], the “X-ray crystal structure, 2.30 Å” value (MjFsr) is reported as “The active site of the F420H2-oxidase domain of Fsr contains a flavin adenine dinucleotide (FAD”.

`O=NO` [NO2^−] gave a Km (MtFsr; 0-500 µM NaNO2, 50 µM F420H2, 200 mM KH2PO4 pH 7.0, 50 °C) of 2.5 ± 0.2 µM.

In the case of `O=S(O)O` [SO3^2−], the Km (MtFsr; 0-500 µM Na2SO3, 50 µM F420H2, 200 mM KH2PO4 pH 7.0, 50 °C) is reported as 15.6 ± 2 µM.

“coenzyme F420-dependent sulfite reductase (Group I Fsr) from Methanothermococcus thermolithotrophicus” gave a stoichiometry N [1] of 4, a stoichiometry N [2] of 4 and a stoichiometry N [3] of 4.

B1: coenzyme F420-dependent sulfite reductase (Group I Fsr) from Methanocaldococcus jannaschii (enzyme, UniProt Q58280 1-620, looked up)
chain: MYEWKLNEIVDSGVCARCGTCTIVCPNGILTFDERPKLIDECLRKGHGMCFEVCPRVSSAKYQIKIREKFYEKYYYAKSDIEGQDGGVVTAFLKYLLENGKIDGAIVVGDECWKPVSLVVQNAEDLLKTAKSKYAISTLDALRKAGEMGLEKVAVVGLPCQINGLRKLQYFPYHAKHDLELGRNGKPVKLPKIEYLIGLFCTEKFRYDNMKEVLSKHGIDIEKVEKFDIKKGKLLVYVNGEKKEFDLKEFEICSGCKMCRDFDAEMADVSVGCVGSPDGYSTIIIRTEKGEEIKNAVELKEGVNLEEIEKLRQLKLKRFKKEVERRRENNEYVSFYWTADYGGIGKRADGTYFIRVRAKPGGWYKPEEIKEILDIAEEYNAKIKVTDRAGYELHGISGFDVEDIVLRLREKGLLTGSEGPLVRATLACPGGGNCSSGLVDTTELARIIEDNFKERPAPYKFKIAISGCPNGCVRPQVHDIGIAGVKYPKVNEEKCNGCGRCAEVCKVEAIDIRGETSYTNYNVCVGCGKCIKNCPNEAREVKEEGYLVYVGGKTGREVVEGVKMKLMSVDEIINFIDKVLVVYGKYAEKPQRERLAAVMKRVGYGKFLEEVKELMKKEIC
notes: Group I coenzyme F420-dependent sulfite reductase (Fsr) of Methanocaldococcus jannaschii DSM 2661; Native enzyme, no tag; Each chain carries FAD, six [4Fe-4S] clusters and a siroheme; also called MjFsr; source: purified natively from M. jannaschii DSM 2661 cells under anaerobic atmosphere (Q Sepharose, Source15Phe, Superdex 200)
In the case of B1, the “stoichiometry N” value [4] is reported as 4.
